Legend:
[1] = molecular target: SHH-E177A (mouse SHH with E177A, expressed from the targeted endogenous locus) (mouse); assay: SDS-resistant cross-linked form on Western blot of tissue extract
[2] = molecular target: SHHN-E176A (N-terminal construct of human SHH with E176A, N-lipid containing, C-lipid lacking) (human); assay: cross-linking

Substance | stoichiometry N [1] | stoichiometry N [2]
SHH-E177A (mouse SHH with E177A, expressed from the targeted endogenous locus) (natural protein) | 2 | –
SHHN-E176A (N-terminal construct of human SHH with E176A, N-lipid containing, C-lipid lacking) (domain or fragment) | – | 2
